Data: patent publication US20150344570A1 (published 2015)
Numbering of substitutions follows the chain as printed. Numbers in names are those of the source.

T1: FcgRIIaH (human, UniProt P12318 34-217)
T1 construct: extracellular domain; Allotype H131; also called FcγRIIa H; FcgRIIa type H; not shown: His tag attached to the C terminus
T1 sequence (looked up): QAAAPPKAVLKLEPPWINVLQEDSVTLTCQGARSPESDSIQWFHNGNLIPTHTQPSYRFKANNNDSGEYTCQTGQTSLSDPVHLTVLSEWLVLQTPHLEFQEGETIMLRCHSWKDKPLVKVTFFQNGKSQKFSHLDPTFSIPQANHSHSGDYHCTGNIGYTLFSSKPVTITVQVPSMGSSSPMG

T2: FcgRIIb (human, UniProt P31994 43-217)
T2 construct: extracellular domain; also called FcγRIIb; CD32B; not shown: His tag attached to the C terminus
T2 sequence (looked up): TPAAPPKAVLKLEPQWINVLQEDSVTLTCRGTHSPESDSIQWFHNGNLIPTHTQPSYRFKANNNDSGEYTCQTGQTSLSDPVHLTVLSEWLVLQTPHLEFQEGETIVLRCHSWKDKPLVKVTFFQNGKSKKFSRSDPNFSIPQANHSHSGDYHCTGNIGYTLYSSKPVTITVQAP

T3: FcgRIIaR (human, UniProt P12318 34-217)
T3 construct: extracellular domain; Allotype R131; also called FcγRIIa R; FcgRIIa type R; not shown: His tag attached to the C terminus
T3 sequence (looked up): T1 sequence (looked up) with H134R

B1: H240-Kn120/H240-Hl068/L73-k0 (antibody, human IgG1, kappa)
heavy 1: QDQLVQSGAEVKKPGASVKVSCKASGFNIKDTYIQWVRQAPGQGLEWMGRIDPLRKQTKYREKFEGRVTITADTSTNTAYMELSSLRSEDTAVYYCVRSGREFDYWGQGTLVTVSSASTKGPSVFPLAPSSKSTSGGTAALGCLVKDYFPEPVTVSWNSGALTSGVHTFPAVLQSSGLYSLSSVVTVPSSSLGTQTYICNVNHKPSNTKVDKKVEPKSCDKTHTCPPCPAPEYYWGPMVFLFPPKPKDTLMISRTPEVTCVVVDVSDEDPEVKFNWYVDGVEVHNAKTKPREEQYNATYRVVSVLTVLHQDWLNGKEYKCKVSNKDLPAPIEKTISKAKGQPREPQVCTLPPSRDELTKNQVSLWCLVKGFYPSDIAVEWESNGQPENNYKTTPPVLDSDGSFFLYSKLTVDKSRWQQGNVFSCSVMHEALHNHYTQKSLSLSP
heavy 2: QDQLVQSGAEVKKPGASVKVSCKASGFNIKDTYIQWVRQAPGQGLEWMGRIDPLRKQTKYREKFEGRVTITADTSTNTAYMELSSLRSEDTAVYYCVRSGREFDYWGQGTLVTVSSASTKGPSVFPLAPSSKSTSGGTAALGCLVKDYFPEPVTVSWNSGALTSGVHTFPAVLQSSGLYSLSSVVTVPSSSLGTQTYICNVNHKPSNTKVDKKVEPKSCDKTHTCPPCPAPELLGGPSVFLFPPKPKDTLMISRTPEVTCVVVDVSHEEPEVKFNWYVDGVEVHNAKTKPREEQYNSTYRVVSVLTVLHQDWLNGKEYKCKVSNDALPKPIEETISKAKGQPREPQVYTLPPSRCELTKNQVSLSCAVKGFYPSDIAVEWESNGQPENNYKTTPPVLDSDGSFFLVSKLTVDKSRWQQGNVFSCSVMHEALHNHYTQKSLSLSP
light: DIQMTQSPSSLSASVGDRVTITCRASQDIHKYIAWYQQKPGQAPRLLIQYTSTLQPGVPSRFSGSGSGTDYTFTISSLQPEDIATYYCLQYEQLRTFGGGTKVEIKRTVAAPSVFIFPPSDEQLKSGTASVVCLLNNFYPREAKVQWKVDNALQSGNSQESVTEQDSKDSTYSLSSTLTLSKADYEKHKVYACEVTHQGLSSPVTKSFNRGEC
notes: Heterodimerized (knobs-into-holes) anti-epiregulin IgG1 antibody
B2: GpH7-A5/GpH7-HA5/GpL16-k0 (antibody, human IgG1, kappa)
heavy 1: not shown
heavy 2: QVQLVQSGAEVKKPGASVTVSCKASGYTFTDYEMHWIRQPPGEGLEWIGAIDPKTGDTAYSESFQDRVTLTADKSTSTAYMELSSLTSEDTAVYYCTRFYSYTYWGQGTLVTVSSASTKGPSVFPLAPSSKSTSGGTAALGCLVKDYFPEPVTVSWNSGALTSGVHTFPAVLQSSGLYSLSSVVTVPSSSLGTQTYICNVNHKPSNTKVDKKVEPKSCDKTHTCPPCPAPEYLGGPSVFLFPPKPKDTLMISRTPEVTCVVVDVSHEDPEVKFNWYVDGVEVHNAKTKPREEQYNSTYRVVSVLTVLHQDWLNGKEYKCKVSNKALRAPIEKTISKAKGQPREPQVYTLPPSRDELTKNQVSLTCLVKGFYPSDIAVEWESNGQPENNYKTTPPVLDSDGSFFLYSKLTVDKSRWQQGNVFSCSVMHEALHNHYTQESLSLSP
light: DIVMTQSPLSLPVTPGEPASISCQASESLVHSNRNTYLHWYLQKPGQSPQLLIYKVSNRFSGVPDRFSGSGSGTDFTLKISRVEAEDVGVYYCSQNTHVPPTFGQGTKVEIERTVAAPSVFIFPPSDEQLKSGTASVVCLLNNFYPREAKVQWKVDNALQSGNSQESVTEQDSKDSTYSLSSTLTLSKADYEKHKVYACEVTHQGLSSPVTKSFNRGEC
notes: Anti-glypican-3 IgG1 heterodimer; L234Y and P329R in H2
B3: GpH7-A53/GpH7-B78/GpL16-k0 (antibody, human IgG1, kappa)
heavy 1: B2 heavy 2 with Y232L, S237D, R327P, D354K, H433R, E437K
heavy 2: B2 heavy 2 with Y232L, S237D, R327P, A328L, I330E
light: B2 light
notes: S239D in one H chain, S239D/A330L/I332E in the other
B4: GpH7-TA7/GpH7-B78/GpL16-k0 (antibody, human IgG1, kappa)
heavy 1: B2 heavy 2 with G234W, S296A, R327P, D354K, H433R, E437K
heavy 2: B2 heavy 2 with Y232L, S237D, R327P, A328L, I330E
light: B2 light
notes: L234Y/G236W/S298A in one H chain, S239D/A330L/I332E in the other
B5: GpH7-A5/GpH7-HA15/GpL16-k0 (antibody, human IgG1, kappa)
heavy 1: not shown
heavy 2: B2 heavy 2 with Y232L, A328L
light: B2 light
notes: Anti-glypican-3 IgG1 heterodimer; A330L and P329R in H2
B6: GpH7-A48/GpH7-B3-01-15Y/GpL16-k0 (antibody, human IgG1, kappa)
heavy 1: B2 heavy 2 with Y232L, D354K, H433R, E437K
heavy 2: not shown
light: B2 light
notes: Anti-glypican-3 IgG1 heterodimer; P329R in H1, L234Y in H2
B7: GpH7-A48/GpH7-B3-20-08L/GpL16-k0 (antibody, human IgG1, kappa)
heavy 1: B2 heavy 2 with Y232L, D354K, H433R, E437K
heavy 2: not shown
light: B2 light
notes: Anti-glypican-3 IgG1 heterodimer; P329R in H1, A330L in H2
B8: GpH7-A5/GpH7-HA18/GpL16-k0 (antibody, human IgG1, kappa)
heavy 1: not shown
heavy 2: B2 heavy 2 with Y232L, I330E
light: B2 light
notes: Anti-glypican-3 IgG1 heterodimer; I332E and P329R in H2
B9: GpH7-A48/GpH7-B3-06-09D/GpL16-k0 (antibody, human IgG1, kappa)
heavy 1: B2 heavy 2 with Y232L, D354K, H433R, E437K
heavy 2: not shown
light: B2 light
notes: Anti-glypican-3 IgG1 heterodimer; P329R in H1, S239D in H2
B10: GpH7-A5/GpH7-HA11/GpL16-k0 (antibody, human IgG1, kappa)
heavy 1: not shown
heavy 2: B2 heavy 2 with Y232L, S296A
light: B2 light
notes: Anti-glypican-3 IgG1 heterodimer; S298A and P329R in H2
B11: GpH7-A5/GpH7-HA6/GpL16-k0 (antibody, human IgG1, kappa)
heavy 1: not shown
heavy 2: B2 heavy 2 with Y232L, G234W
light: B2 light
notes: Anti-glypican-3 IgG1 heterodimer; G236W and P329R in H2
B12: GpH7-A48/GpH7-B3-22-10E/GpL16-k0 (antibody, human IgG1, kappa)
heavy 1: B2 heavy 2 with Y232L, D354K, H433R, E437K
heavy 2: not shown
light: B2 light
notes: Anti-glypican-3 IgG1 heterodimer; P329R in H1, I332E in H2
B13: GpH7-A48/GpH7-B3-15-02A/GpL16-k0 (antibody, human IgG1, kappa)
heavy 1: B2 heavy 2 with Y232L, D354K, H433R, E437K
heavy 2: not shown
light: B2 light
notes: Anti-glypican-3 IgG1 heterodimer; P329R in H1, S298A in H2
B14: GpH7-A48/GpH7-B3-03-20W/GpL16-k0 (antibody, human IgG1, kappa)
heavy 1: B2 heavy 2 with Y232L, D354K, H433R, E437K
heavy 2: not shown
light: B2 light
notes: Anti-glypican-3 IgG1 heterodimer; P329R in H1, G236W in H2

Key:
FcgRIIaH = target: T1, FcgRIIaH; test: SPR (Biacore); KD of H240-Kn120/H240-Hl068/L73-k0 divided by KD of the sample
Description: (§1) Analysis of interaction between objective antibody and the FcγR was carried out using Biacore T100 (GE Healthcare), Biacore T200, Biacore A100, and Biacore 4000. HBS-EP+ (GE Healthcare) was used as the running buffer, and the measurement temperature was set to 25° C. Chips produced by immobilizing the antigen peptide by the amine coupling method to a Series S sensor Chip CM5 (GE Healthcare), chips produced by allowing preliminarily biotinylated antigen peptides to interact with and immobilize onto a Series S Sensor Chip SA (certified) (GE Healthcare), chips produced by immobilizing Protein L (ACTIGEN, BioVision) to Series S Sencor Chip CM5 (GE Healthcare), or chips produced by immobilizing Protein A/G (Thermo Scientific) to Series S Sencor Chip CM5 (GE Healthcare) were used. Antibodies of interest were captured onto these chips, and allowed to interact to each FcγR diluted with running buffer. To regenerate and repeatedly use the chip, the antibodies captured onto the chip were washed off by reacting 10 mM glycine-HCl, pH 1.5.

FcgRIIIaV = target: T4, FcgRIIIaV (human, UniProt P08637 17-208); test: as above
T4 construct: extracellular domain; Allotype V158; also called FcγRIIIa V; not shown: His tag attached to the C terminus
Description: as §1

FcgRIIb = target: T2, FcgRIIb; test: as above
Description: as §1

FcgRIIIaF = target: T5, FcgRIIIaF (human, UniProt P08637 17-208); test: as above
T5 construct: extracellular domain; Allotype F158; also called FcγRIIIa F; not shown: His tag attached to the C terminus
Description: as §1

FcgRIa = target: T6, FcgRIa (human, UniProt P12314 16-292); test: as above
T6 construct: extracellular domain; Soluble extracellular domain expressed in FreeStyle293 cells; also called FcγRIa; FcγRI; not shown: His tag attached to the C terminus
Description: as §1

FcgRIIaR = target: T3, FcgRIIaR; test: as above
Description: as §1

FcγRIIIa = target: T7, FcγRIIIa (human, UniProt P08637 17-208); test: SPR (Biacore), antibody captured on antigen-peptide chip, FcγR as analyte; relative binding amount
T7 construct: extracellular domain; also called FcgRIIIa; CD16A; not shown: His tag attached to the C terminus
Source text: The expression vectors for the respective H chains were combined in a way that each of the alterations L234Y, G236W, S298A, S239D, A330L, and I332E is present in the same H chain as P329R or in the different H chain from P329R, and the expression vector GpL16-k0 for the L chain was combined with them. Antibodies of interest were expressed and prepared according to the method described in Reference Example 1. The prepared antibodies were used to assay the FcγRIIIa-binding activity. The result of assessment using P329R on the direction of FcγRIIIa recognition by L234Y, G236W, S298A, S239D, A330L, and I332E is summarized in Table 12.
Analysis of interaction between objective antibody and the FcγR was carried out using Biacore T100 (GE Healthcare). HBS-EP+ (GE Healthcare) was used as the running buffer, and the measurement temperature was set to 25° C. Chips produced by immobilizing the antigen peptide by the amine coupling method to a Series S Sencor Chip CM5 (GE Healthcare), or alternatively, chips produced by allowing preliminarily biotinylated antigen peptides to interact with and immobilize onto a Series S Sensor Chip SA (certified) (GE Healthcare) were used. Antibodies of interest were captured onto an antigen peptide-immobilized chip, and allowed to interact to each FcγR diluted with running buffer. To regenerate and repeatedly use the chip, the antibodies captured on the chip were washed off by reacting 10 mM glycine-HCl, pH 1.5.

FcγRIIIa F = FcγRIIIa F (human, UniProt P08637 17-208); test: SPR (Biacore), KD
Sequence of FcγRIIIa F (P08637 17-208): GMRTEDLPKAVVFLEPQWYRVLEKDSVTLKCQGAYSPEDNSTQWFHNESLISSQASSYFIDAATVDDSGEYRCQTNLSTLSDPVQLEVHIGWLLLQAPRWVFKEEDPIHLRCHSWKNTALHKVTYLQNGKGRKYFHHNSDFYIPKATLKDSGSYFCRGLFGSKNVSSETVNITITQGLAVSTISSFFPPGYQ

T7 sequence (P08637 17-208): as above
T4 sequence (P08637 17-208 F176V limits assumed): as the sequence (P08637 17-208) above, with F160V counted along it
T5 sequence (P08637 17-208): as the sequence (P08637 17-208) above
T6 sequence (P12314 16-292): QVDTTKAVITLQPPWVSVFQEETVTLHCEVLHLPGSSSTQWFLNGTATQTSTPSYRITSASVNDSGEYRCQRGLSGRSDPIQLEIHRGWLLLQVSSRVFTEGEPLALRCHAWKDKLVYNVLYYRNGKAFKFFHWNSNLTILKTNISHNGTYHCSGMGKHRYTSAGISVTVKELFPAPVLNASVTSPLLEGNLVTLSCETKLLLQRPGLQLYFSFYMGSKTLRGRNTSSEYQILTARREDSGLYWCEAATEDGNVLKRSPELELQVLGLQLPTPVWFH

Row | Binder | FcγRIIIa BINDING ACTIVITY (relative) (FcγRIIIa) | other results
1 | B1 | – | relative KD (FcgRIIaH): 1; relative KD (FcgRIIIaV): 1; relative KD (FcgRIIb): 1; relative KD (FcgRIIIaF): 1; relative KD (FcgRIa): 1; relative KD (FcgRIIaR): 1
2 | B2 | 60 relative, GpH7-A5/GpH7-B3/GpL16-k0 = 100 | –
3 | B3 | – | fold decrease of FcγRIIIa-binding activity against GpH7-A57/GpH7-B78/GpL16-k0 (FcγRIIIa F): 1.8 times
4 | B4 | – | fold FcγRIIIa binding against GpH7-A5/GpH7-B78/GpL16-k0 (FcγRIIIa F): ≥ 10 times
5 | B5 | 32 relative, GpH7-A5/GpH7-B3/GpL16-k0 = 100 | –
6 | B6 | 11 relative, GpH7-A5/GpH7-B3/GpL16-k0 = 100 | –
7 | B7 | 60 relative, GpH7-A5/GpH7-B3/GpL16-k0 = 100 | –
8 | B8 | 35 relative, GpH7-A5/GpH7-B3/GpL16-k0 = 100 | –
9 | B9 | 123 relative, GpH7-A5/GpH7-B3/GpL16-k0 = 100 | –
10 | B10 | 84 relative, GpH7-A5/GpH7-B3/GpL16-k0 = 100 | –
11 | B11 | 56 relative, GpH7-A5/GpH7-B3/GpL16-k0 = 100 | –
12 | B12 | 189 relative, GpH7-A5/GpH7-B3/GpL16-k0 = 100 | –
13 | B13 | 47 relative, GpH7-A5/GpH7-B3/GpL16-k0 = 100 | –
14 | B14 | 13 relative, GpH7-A5/GpH7-B3/GpL16-k0 = 100 | –
